# In US20080131497A1, “Formulations of DNase and Methods of Use Thereof” (priority 2006, published 2008):
# Substitutions are numbered along the chain they refer to.
# B1: deamidated human DNase: human DNase deamidated at the asparagine residue at position 74 of native mature human DNase (protein, UniProt P24855 23-282, looked up, variant N74D)
# Deoxyribonuclease-1: LKIAAFNIQTFGETKMSNATLVSYIVQILSRYDIALVQEVRDSHLTAVGKLLDNLNQDAPDTYHYVVSEPLGRDSYKERYLFVYRPDQVSAVDSYYYDDGCEPCGNDTFNREPAIVRFFSRFTEVREFAIVPLHAAPGDAVAEIDALYDVYLDVQEKWGLEDVMLMGDFNAGCSYVRPSQWSSIRLWTSPTFQWLIPDSADTTATPTHCAYDRIVVAGMLLRGAVVPDSALPFNFQAAYGLSDQLAQAISDHYPVEVMLK
# modifications: deamidation
# notes: human DNase deamidated at the asparagine residue at position 74 of native mature human DNase
# B2: Pulmozyme: highly purified, commercially available solution of DNase (from Genentech); recombinant human DNase (protein, UniProt P24855 23-282, looked up)
# Deoxyribonuclease-1: B1 Deoxyribonuclease-1 with D74N
# B3: DNase: recombinant human deoxyribonuclease I, an enzyme which selectively cleaves DNA; standard in viscosity assay (protein, UniProt P24855 23-282, looked up)
# Deoxyribonuclease-1: B1 Deoxyribonuclease-1 with D74N
# B4: doubly deamidated DNase: human DNase deamidated at asparagine position 7 in addition to position 74 (protein, UniProt P24855 23-282, looked up, variant N7D N74D)
# Deoxyribonuclease-1: B1 Deoxyribonuclease-1 with N7D
# modifications: deamidation
# Assays:
# [1] = test system: colony forming units (CFU); conditions: administered by inhalation, CF patients; cited from earlier work
# [2] = administered by inhalation, CF patients; cited from earlier work
# [3] = test system: DNA; experiment: Enzymatic activity of human DNase forms, methyl green (MG) assay; type: biochemical
# Description: Kurnick, Arch. Biochem. 29:41 (1950). […] Thus, by combining the purified deamidated DNases and the purified non-deamidated DNase of the present invention in various proportions, it is possible to prepare pharmaceutical compositions of human DNase having any desired specific activity in the range between the specific activities of the individual components, as may be optimal for treating particular disorders.
# [4] = test system: DNA; experiment: DNase viscosity assay (DNA digestion); type: biochemical; conditions: DNase 1 μg/mL, 2 mg/mL DNA, 1 mM Ca2+ and Mg2+
# Experimental: At specific time points aliquots of samples were taken from the vials, diluted and analyzed for DNase activity. Enzymatic activity of DNase was determined by viscosity assay. DNA decomposition by DNase results in decrease of viscosity. DNase at 1 μg/mL normally can digest 2 mg/mL DNA resulting in decrease of viscosity from ˜25 cP (5 rpm) to 10 cP in ˜10 min (and to approaching 1 cP in longer time) in presence of 1 mM Ca^2+ and Mg^2+ ions. Kinetics of viscosity change due to degradation of DNA was measured by Brookfield D-II+ Pro viscosimeter at 5 rpm. Results showing increased stability for DNase when stored in the presence of empty liposomes or liposomal encapsulated antiinfective are presented in FIG. 2.
# Activity was determined as a reciprocal value of a time to reduce viscosity in half, normalized to activity of standard DNase solution (A=T1/2^std/T1/2). The two curves in FIG. 3 illustrate an activity assay and how T1/2 is determined. The curves represent typical change in viscosity of DNA solution after DNase is added. v1 is viscosity at 1 minute, when the first measurement point is taken. T1/2 is the time interval after adding DNase required to reach viscosity level equal to half of v1.
# [5] = test system: DNA; experiment: Enzymatic activity of doubly deamidated DNase; type: biochemical; conditions: deamidated at Asn 7 and Asn 74
molecule,measurement,setting,value
"NC[C@H]1O[C@H](O[C@H]2[C@H](O)[C@@H](O[C@H]3O[C@H](CO)[C@@H](O)[C@H](N)[C@H]3O)[C@H](N)C[C@@H]2N)[C@H](N)C[C@@H]1O [tobramycin, reference compound]",reduction in colony forming units (CFU),[1],about 2 log units
same,improvement in FEV1,[2],approximately 10%
B1,enzymatic activity compared to non-deamidated human DNase,[3],just over half
B2,improvement in FEV1,[2],approximately 10%
B3,time for decrease of viscosity from ~25 cP (5 rpm) to 10 cP,[4],~10 min
B4,enzymatic activity,[5],enzymatically inactive
